B1: Androgen receptor, residues 557 to 632; numbered along this chain, P10275 (parent)
chain: QKTCLICGDEASGCHYGALTCGSCKVFFKRAAEGKQKYLCASRNDCTIDKFRRKNCPSCRLRKCYEAGMTLGARKL
B2: KAT8 regulatory NSL complex subunit 2, residues 28 to 91; numbered along this chain, Q9H9L4 (parent)
chain: CAFTHRPCSHPRLEGQEFCIKHILEDKNAPFKQCSYISTKNGKRCPNAAPKPEKKDGVSFCAEH

Variants of: B1
Test: abundance fitness (aPCA) (normalised: wild type 0, dead -1); higher = more abundant; growth selection in yeast, the domain comes from the species named
Settings: Homo sapiens

Abundance fitness of substitutions, site by site:
L5: C -0.07; R -0.105; Q -0.113; Y -0.162; W -0.122; E -0.071; N -0.058; G -0.189; H -0.137; A -0.109; D -0.065; T -0.01; V -0.145; M -0.212; S -0.013; F -0.078; P -0.296; K -0.053; I -0.04
S23: C -0.185; N -0.108; H -0.036; Y -0.122; Q -0.084; I -0.836; A -0.163; D -0.069; T -0.233; W -0.137; K -0.142; L -0.283; F -0.11; M -0.137; G -0.054; E -0.013
G17: Q -0.357; T -0.411; R -0.33; P -0.691; N -0.061; W -0.645; L -0.552; M -0.229; S -0.319
C24: A -0.96; E -0.909; F -1.06; D -0.695
S12: V -0.025; Q 0.049; C -0.305; I -0.091; F -0.389; T -0.149; N 0.21; A -0.046; P -0.077; Y -0.031; W -0.181; D -0.031; R -0.06; H -0.237; M -0.026; L 0.055; E 0.047; K -0.054; G -0.056
C4: G -0.61; H -0.851; R -0.114; W -0.964; Y -0.884; M -0.679; E -0.563; K -0.87; L -0.745
A18: W -1.07; D -0.232; I 0.124; V -0.04; P -0.26; G -0.335; E -0.617; S -0.142; Q -0.223; F -0.684; H -0.799; Y -0.776; L -0.155; R -0.24; C -0.084
C14: H -0.035; S -0.105; Q -0.133; L 0; I 0.085; D 0.081; R -0.142; T 0.099; N -0.351; F -0.1; A -0.013; W -0.419; V -0.231; P -0.057; G -0.11; E 0.002; M -0.087
D9: R -0.378; F -0.562; A -0.089; Q -0.071; W -0.289; C -0.053; S -0.061; E -0.171; G -0.182; H 0.138; I -0.109; V -0.201; K -0.53; N -0.008; L -0.626; Y -0.609
T3: G -0.078; L -0.035; A -0.081; C 0.014; D -0.171; Q -0.04; W -0.115; E -0.148; I 0.009; R -0.083; H -0.225; N 0.035; S -0.059; Y -0.003; K -0.252; V -0.245; P -0.229
I6: S -0.617; K -1.05; L -0.789; D -0.646; V -0.243; Q -0.459; C -0.327; M -0.811; A -0.427; T -0.256; R -0.525
Y16: K -0.473; S -0.408; A -0.397; R -0.684; W -0.122; C -0.566; G -0.432; Q -0.487; P -0.455; M -0.11; N -0.307; T -0.445; D -0.355; H -0.333; L -0.275; V -0.609
H15: Q -0.175; Y -0.237; L -0.211; K -0.106; V -0.182; P -0.27; N -0.157; E 0.099; G -0.151; M -0.088; T 0.045; D -0.177; A -0.151; C -0.037; R -0.221; W 0.097; I -0.063
G8: N -0.29; A 0.009; E -0.045; K -0.111; S -0.165; C -0.319; H -0.06; V -0.868; Q -0.463; T -0.31; L -0.146; Y 0.036; W -0.529; R -0.43
C21: W -0.694; Y -0.849; L -0.993; P -1.21; Q -0.564; T -0.81; V -0.754; I -0.777; H -0.602; M -0.953; E -0.68; S -1.05; A -0.732; D -1.23; K -0.988; R -0.895; G -0.976
C7: S -0.615; Y -0.583; W -0.79; E -1.03; V -1.2; G -0.874; L -0.886; N -0.212; T -0.819
T20: E -0.825; H -0.299; C 0.002; I -0.035; P -0.724; L -0.166; V 0.04; S 0.047; W -0.637; R -0.859; A -0.041; M -1; K -0.755; Q -0.856; N -0.441; G -0.539
G22: M -0.163; H -0.152; W -0.034; C -0.064; A -0.025; D -0.033; F -0.322; R -0.166; P -0.026; Q -0.037; S -0.048; E 0.064; I -0.262; T -0.06; V -0.141; K -0.114; Y -0.207
G13: A -0.167; W -0.571; I -0.416; D -0.198; C -0.311; R -0.2; T -0.057; K -0.229; V -0.061; L -0.115; M -0.163; E -0.274; S -0.034; N -0.201
Q1: W -0.032; V 0.06; M 0.007; S -0.058; H -0.504; R -0.228; A -0.144; C -0.019; F 0.16; L -0.027; T 0.106; P -0.439; D 0.071; Y 0.172; N -0.053; G 0.048; K 0.076; I 0.198
L19: K -0.015; W 0.029; R -0.006; D -0.048; N -0.065; V -0.035; P -0.106; C -0.19; S -0.109; Q 0.059; I -0.034; T -0.017; A -0.063; Y -0.101; G -0.399; M -0.03; E 0.034

Variants of: B2
Test: as above
Settings: Homo sapiens

Abundance fitness of substitutions, site by site:
H64: I -1.02; T -0.33; L -0.602; M -0.333; N -0.441; A -0.582; R -0.427; Y -0.781; K -0.509; V -0.534; P -0.401; D -0.324; S -0.315; E -0.877; Q -0.463; W -1.55
E63: T -0.054; R -0.024; Q -0.175; W -0.086; S -0.093; N -0.062; V -0.175; M -0.165; L -0.17; P -0.188; Y -0.138

From the Human Domainome abundance scans (Beltran et al. 2025)
